The results in this text go back to paper PMC6420074 (Nature metabolism, 2019).

The target of test [1] is T1, extracellular domain of Tfr2 (Tfr2-ECD), recombinant His-MBP-c3-Tfr2-ECD (murine, UniProt Q9JKX3 103-798).
T1 sequence: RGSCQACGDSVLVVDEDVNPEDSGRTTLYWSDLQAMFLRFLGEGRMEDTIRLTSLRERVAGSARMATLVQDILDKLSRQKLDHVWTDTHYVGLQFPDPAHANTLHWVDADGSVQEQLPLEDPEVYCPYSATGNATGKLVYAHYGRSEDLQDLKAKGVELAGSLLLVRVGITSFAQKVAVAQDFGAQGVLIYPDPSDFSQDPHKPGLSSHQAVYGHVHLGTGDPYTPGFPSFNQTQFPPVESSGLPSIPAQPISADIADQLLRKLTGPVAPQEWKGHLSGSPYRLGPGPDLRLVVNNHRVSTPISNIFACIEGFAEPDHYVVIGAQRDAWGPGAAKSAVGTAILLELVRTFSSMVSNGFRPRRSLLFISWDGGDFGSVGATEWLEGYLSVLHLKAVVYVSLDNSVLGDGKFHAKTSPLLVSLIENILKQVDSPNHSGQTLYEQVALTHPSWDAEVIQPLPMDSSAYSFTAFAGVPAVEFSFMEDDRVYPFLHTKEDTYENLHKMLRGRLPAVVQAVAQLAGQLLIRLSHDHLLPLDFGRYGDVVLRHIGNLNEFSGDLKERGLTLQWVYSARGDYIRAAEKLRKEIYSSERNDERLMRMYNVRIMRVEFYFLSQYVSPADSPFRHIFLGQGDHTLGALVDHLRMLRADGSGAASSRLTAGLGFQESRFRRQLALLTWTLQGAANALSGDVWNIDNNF
Description: SPR. A general note: Surface plasmon resonance follows binding to a sensor surface in real time, without labels.

The target of test [2] is T1, extracellular domain of Tfr2 …. The test can be described thus: SPR. This is another data set of the same source.

What is called Kd is the equilibrium constant for the complex coming apart.

B1: BMP-2 (ligand)
chain: QAKHKQRKRLKSSCKRHPLYVDFSDVGWNDWIVAPPGYHAFYCHGECPFPLADHLNSTNHAIVQTLVNSVNSKIPKACCVPTELSAISMLYLDENEKVVLKNYQDMVVEGCGCR
On to B1, for which the “fold binding level against holo-Tf” value in test [1] was greater than 10 fold. The Kd in test [2] turned out to be 488 ± 37 nM.

B2: BMP-4 (ligand)
chain: SPKHHSQRARKKNKNCRRHSLYVDFSDVGWNDWIVAPPGYQAFYCHGDCPFPLADHLNSTNHAIVQTLVNSVNSSIPKACCVPTELSAISMLYLDEYDKVVLKNYQEMVVEGCGCR
On to B2, for which the Kd in test [2] worked out at 409 ± 39 nM.
